Consider nine molecules from patent US20240425587A1 (Alector, published 2024).

For orientation: IC50 means the point on the concentration scale where inhibition reaches its midpoint. A word on the Kd: it is the free concentration of one partner at which half of the binding sites on the other are occupied at equilibrium, for simple one-to-one binding. Higher therefore signals weaker binding. As a reminder, the koff is the first-order rate constant of dissociation. Low readings indicate slow dissociation, high ones fast dissociation. In general, kon refers to the second-order rate constant of association. Read a low kon as slower complex formation. As usually defined, the t½ is how long it takes for the measured level to halve. Broadly, the EC50 is the concentration needed to bring the measured effect to its halfway point. Low values mean a more potent agent, high ones a less potent agent.

Numbering of substitutions follows the chain as printed. Names and notes keep the numbering of the source.

To fix the notation:
B1: A2 (antibody, V domains shown)
VH: EVQLLESGGGLVKPGGSLRLSCAASGFTFSDYYMSWVRQAPGKGLEWVSSISIGGGGTYYADSVKGRFTISRDDSKNTLYLQMNSLRAEDTAVYYCASHGFGARKMDFWGQGTTVTVSS
VL: DIQMTQSPSSLSASVGDRVTITCRASQSIRSYVNWYQQKPGKAPKLLIYDASNLETGVPSRFSGSGSGTDFTLTISSLQPEDFATYYCQQSYSPPITFGQGTKVEIK
notes: phage campaign
B2: A3 (antibody, V domains shown)
VH: EVQLLESGGGLVQPGGSLRLSCAASGFTFSRYEMNWVRQAPGKGLEWVAGISYDGSYEYYADSVKGRFTISRDNSKNTLYLQMNSLRAEDTAVYYCAKGSYGYDAFDIWGQGTMVTVSS
VL: B1 VL with R30S, Y32W, V33L, N34A, D50A, A51T, N53T, E55Q, T56S, I96Y
notes: phage campaign
B3: A4 (antibody, V domains shown)
VH: QVQLVQSGAEVKKPGSSVKVSCKASGYTFTGYAVNWVRQAPGQGLEWMGGIIPIFGTANYAQKFQGRVTITADESTSTAYMELSSLRSEDTAVYYCARNLGYSSGWSGYYYGMDVWGQGTMVTVSS
VL: EIVMTQSPATLSVSPGERATLSCRASQSVSSNYLAWYQQKPGQAPRLLIYGASTRATGIPARFSGSGSGTEFTLTISSLQSEDFAVYYCQQYGSSSFTFGPGTKLEIK
notes: phage campaign
B4: A15 (antibody, V domains shown)
VH: QVQLVQSGAEVKKPGASVKVSCKASGGTFSNYGLTWVRQAPGQGLEWMGWINLNSGGTYYAQKFQGRVTMTRDTSTSTVYMELSSLRSEDTAVYYCARDRYSSGWYEGDAFDIWGQGTMVTVSS
VL: DIQMTQSPSSLSASVGDRVTITCRASQGISNWLAWYQQKPGKAPKLLIYAASSLQSGVPSRFSGSGSGTDFTLTISSLQPEDFATYYCQQSYSTPWTFGPGTKVDIK
notes: phage campaign
B5: E5 (antibody, V domains shown)
VH: QVQLVQSGAEVKKPGSSVKVSCKASGYTFTSYGINWVRQAPGQGLEWMGWINPNSGDTLYAQNFQGRVTITADESTSTAYMELSSLRSEDTAVYYCARGPEPYWYFDLWGRGTLVTVSS
VL: EIVMTQSPATLSVSPGERATLSCRASQNIDSRFLAWYQQKPGQAPRLLIYGASTRATGIPARFSGSGSGTEFTLTISSLQSEDFAVYYCQQSFSTPLTFGGGTKVEIK
B6: A1 (antibody, V domains shown)
VH: QVQLVQSGAEVKKPGSSVKVSCKASGYTFINHDINWVRQAPGQGLEWMGWMNPNSGNTGYAQKFQGRVTITADESTSTAYMELSSLRSEDTAVYYCARDRRGSYYGLMDWFDPWGQGTLVTVSS
VL: DIQMTQSPSSLSASVGDRVTITCRASQSISRWLAWYQQKPGKAPKLLIYDASNLETGVPSRFSGSGSGTDFTLTISSLQPEDFATYYCQQSYSTPSFGQGTKVEIK
notes: phage campaign
B7: A14 (antibody, V domains shown)
VH: QVQLVQSGAEVKKPGASVKVSCKASGYTFTSYYMYWVRQAPGQGLEWMGWMNPNSGNTGFAQKFQGRVTMTRDTSTSTVYMELSSLRSEDTAVYYCASGYYDSWSGETDYGMDVWGQGTTVTVSS
VL: B1 VL with R30S, V33L, N53T, T56S, S93K, P94T, I96Y, V104L
notes: phage campaign
B8: E15 (antibody, V domains shown)
VH: QVQLQQSGAELVKPGASVKLSCKASGNTFTIYDINWVRQRPEQGLEWIGWIFPGDGSTKYNGKFKGKATLTTDKSSSTAYMQLSRLTSEDSAVYFCARRAHYYGSSFDYWGQGTTLTVSS
VL: DIQMTQSSSYLSVSLGGRVTITCKASDHINNWLAWYQQKPGNGPRLLISGAISLEIGVPSRFSGSGSGKEYTLSITSLQTEDVATYYCQQYWSPPWTFGGGTKLEIK
notes: B-cell cloning campaign (mice)
B9: A12 (antibody, V domains shown)
VH: QVQLVQSGAEVKKPGASVKVSCKASGYNFNDYYIHWVRQAPGQGLEWMGWISAYNGNTNYAQKLQGRVTMTRDTSTSTVYMELSSLRSEDTAVYYCARDGWYCSSSSCYTGSDYWGQGTLVTVSS
VL: B4 VL with G28S, W32Y, A34N, A50G, S53T, Q55H, W96F
notes: phage campaign

T3 sequence (Q2YFS2 29-224): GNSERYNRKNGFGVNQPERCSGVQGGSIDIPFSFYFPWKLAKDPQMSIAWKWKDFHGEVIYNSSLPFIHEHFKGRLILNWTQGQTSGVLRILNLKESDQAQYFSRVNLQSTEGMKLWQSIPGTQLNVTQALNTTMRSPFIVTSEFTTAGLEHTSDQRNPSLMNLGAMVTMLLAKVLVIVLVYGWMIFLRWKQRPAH
cynomolgus PILRA, ectopically expressed on 293 cells (cynomolgus monkey), sequence (chain, as listed by the source): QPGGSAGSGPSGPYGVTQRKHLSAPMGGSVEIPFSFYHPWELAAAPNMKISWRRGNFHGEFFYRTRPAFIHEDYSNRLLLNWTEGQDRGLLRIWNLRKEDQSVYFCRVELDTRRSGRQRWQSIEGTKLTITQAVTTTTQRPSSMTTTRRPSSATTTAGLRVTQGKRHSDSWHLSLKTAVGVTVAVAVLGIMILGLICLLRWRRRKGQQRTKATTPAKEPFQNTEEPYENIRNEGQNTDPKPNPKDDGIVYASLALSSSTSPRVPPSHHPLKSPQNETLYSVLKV
T4 sequence (Q9UKJ0 20-227): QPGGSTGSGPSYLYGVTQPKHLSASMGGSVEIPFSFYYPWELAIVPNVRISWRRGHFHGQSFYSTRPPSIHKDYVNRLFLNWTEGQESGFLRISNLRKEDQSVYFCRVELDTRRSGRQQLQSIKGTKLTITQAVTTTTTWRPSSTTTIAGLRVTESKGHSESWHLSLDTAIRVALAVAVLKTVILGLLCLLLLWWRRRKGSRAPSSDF
T2 sequence (Q9UKJ1 20-197 limits assumed): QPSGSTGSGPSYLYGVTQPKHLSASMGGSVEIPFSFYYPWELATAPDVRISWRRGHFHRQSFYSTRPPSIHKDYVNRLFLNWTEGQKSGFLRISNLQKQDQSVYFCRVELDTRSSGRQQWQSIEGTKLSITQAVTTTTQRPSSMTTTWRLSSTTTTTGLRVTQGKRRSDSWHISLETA

The first assay deals with T1, human PILRA, G78 variant, ectopically expressed on 293 cells (human, UniProt Q9UKJ1 20-303).
T1 construct: the cells are labelled G78; also called hA G78 OE; hA
T1 sequence (Q9UKJ1 other isoform, or with tags, fused parts or gaps mutant): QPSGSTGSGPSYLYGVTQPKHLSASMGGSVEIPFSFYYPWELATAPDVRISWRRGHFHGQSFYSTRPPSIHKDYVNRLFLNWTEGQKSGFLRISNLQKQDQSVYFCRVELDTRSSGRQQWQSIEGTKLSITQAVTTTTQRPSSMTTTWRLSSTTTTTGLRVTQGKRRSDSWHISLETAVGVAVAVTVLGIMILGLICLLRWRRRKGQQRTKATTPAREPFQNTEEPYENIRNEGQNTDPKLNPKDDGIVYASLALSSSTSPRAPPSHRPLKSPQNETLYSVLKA
The assay can be described thus: flow cytometry; blocking of NPDC1-hIgG1 binding to 293 cells expressing human PILRA G78.
Regarding B1, the IC50 stood at 0.78 µg/mL.
On the same count and under the same terms, in the case of B2 it was 0.38 µg/mL; in that of B3, 0.32 µg/mL.
Same read-out and setting: in the case of B4 it was 0.27 µg/mL; in that of B5, 0.22 µg/mL; in that of B6, 1.9 µg/mL.

A further assay has as its target T2, human PILRA, c-term His-Avi tag (human, UniProt Q9UKJ1 20-197, limits assumed).
T2 construct: not shown: C-terminal His-Avi tag
The assay can be described thus: SPR (Biacore), antibody captured, PILRA as analyte. As for the experimental part: Experiments were performed to determine the kinetics of anti-PILRA antibody binding to human […]. The assay is depicted in FIG. 6. A rabbit anti-PILRA was used as a positive control, and H1 LALAPS was used as a negative control. Human PILRA (human PILRA, c-term His-Avi tag, 0.68 mg/mi) was used as the antigen. The running buffer was HBSTE/0.5% BSA, pH 7.4, and the regeneration solution was 10 mM glycine-HCl (pH 2.1). In the assay, antibodies were captured at 10 μg/ml by immobilized anti-huFc or anti-msFc on a Biacore CM5 chip, and human PILRA flowed at 33, 100, and 300 nM. The surface was regenerated after each analyte, and all curves were double-referenced with buffer injections.
On to B1, for which the Kd amounted to 193 nM, the koff was determined as 0.0063 s⁻¹ and the kon is 33000 M⁻¹ s⁻¹.
In turn, B7 returned a Kd of 12.2 nM, a koff of 0.0012 s⁻¹, a kon of 99000 M⁻¹ s⁻¹ and a t½ of 9.6 min.
In the case of B2, the Kd was 93.7 nM, the koff amounted to 0.0067 s⁻¹ and the kon is 71000 M⁻¹ s⁻¹.
On to B8, for which binding was put at a Kd of 31.3 nM, the koff was found to be 0.0017 s⁻¹, the kon was 53000 M⁻¹ s⁻¹ and the t½ came to 6.9 min.
As for B3, the Kd amounted to 113 nM, the koff is 0.005 s⁻¹ and the kon amounted to 44000 M⁻¹ s⁻¹.
For the molecule B9, the Kd turned out to be 19.3 nM, the koff amounted to 0.0012 s⁻¹, the kon came to 63000 M⁻¹ s⁻¹ and the t½ was 9.6 min.
B5: binding was characterised by a dissociation constant (Kd) of 76.2 nM, the koff is 0.0061 s⁻¹ and the kon is 80000 M⁻¹ s⁻¹.
On the same counts, the results for B6 are 99.6 nM, 0.0038 s⁻¹ and 38000 M⁻¹ s⁻¹.

The target of another assay is cynomolgus PILRA, ectopically expressed on 293 cells (cynomolgus monkey). The assay can be described thus: flow cytometry, 293 cells expressing target. The protocol:
(§1) Briefly, conditioned media containing antibodies were incubated with 293 cells for 30 min at 4° C., washed twice, and then detected with anti-mouse IgG Alexa 647.
Take B1: the binding result was “no binding”.
Molecule B7 returned an EC50 of 11.5 µg/mL.
For the molecule B2, the binding result is “no binding”.
With B8, it took 14.6 µg/mL to reach a half-maximal effect (EC50).
Still for that read-out and setting: in the case of B3 it was 1.3 µg/mL.
Same read-out and setting: the value for B9 was 8.6 µg/mL; that for B4 was 11.1 µg/mL.
Turning to B5, the binding result is reported as “no binding”.
The same measure, in the same setting: in the case of B6 it was “no binding”.

A further assay has as its target T3, murine PILRB, ectopically expressed on 293 cells (murine, UniProt Q2YFS2 29-224).
T3 construct: whole, on cells; also called mB
The assay can be described thus: flow cytometry, 293 cells expressing target. As for the experimental part: as §1
Take B1: the binding result is recorded as “no binding”.
Same read-out and setting: in the case of B7 it was “no binding”.
As for B2, the binding result is listed as “no binding”.
Still for that read-out and setting: in the case of B8 it was “no binding”; in that of B3, “no binding”; in that of B9, “no binding”.
Same read-out and setting: the value for B4 was “no binding”.
Same read-out and setting: in the case of B5 it was “no binding”; in that of B6, “no binding”.

A further assay addresses T4, human PILRB, ectopically expressed on 293 cells (human, UniProt Q9UKJ0 20-227).
T4 construct: also called hB
Briefly: flow cytometry, 293 cells expressing target. As for the experimental part: as §1
A general note: Flow cytometry measures light scatter and fluorescence of single cells or particles in a stream.
B7: the 50% effective concentration (EC50) came to 12.9 µg/mL.
Take B2: the binding result was “no binding”.
B8 gave a 50% effective concentration (EC50) of 16.4 µg/mL.
Take B3: the binding result is reported as “no binding”.
B9: the midpoint of the response, the EC50, lay at 8.6 µg/mL.
Still for that read-out and setting: in the case of B4 it was 10.5 µg/mL; in that of B5, 0.3 µg/mL.
Consider B6, for which the binding result is given as “no binding”.

In a further assay the target is T1, human PILRA, G78 variant, ectopically …. Briefly: flow cytometry, 293 cells expressing target. The protocol:
as §1
B1 came in with an EC50 of 0.3 µg/mL.
The same measure, in the same setting: in the case of B7 it was 0.5 µg/mL; in that of B2, 0.1 µg/mL; in that of B8, 4.73 µg/mL.
Same read-out and setting: in the case of B3 it was 0.7 µg/mL; in that of B9, 0.4 µg/mL.
The same measure, in the same setting: the value for B4 was 0.2 µg/mL.
Consider B5, for which the response was half-maximal at 0.1 µg/mL (EC50).
The same measure, in the same setting: in the case of B6 it was 1.9 µg/mL.

Another assay deals with T5, murine PILRA, ectopically expressed on 293 cells (murine, UniProt Q2YFS3 32-302).
T5 construct: also called mA
T5 sequence (Q2YFS3 32-302): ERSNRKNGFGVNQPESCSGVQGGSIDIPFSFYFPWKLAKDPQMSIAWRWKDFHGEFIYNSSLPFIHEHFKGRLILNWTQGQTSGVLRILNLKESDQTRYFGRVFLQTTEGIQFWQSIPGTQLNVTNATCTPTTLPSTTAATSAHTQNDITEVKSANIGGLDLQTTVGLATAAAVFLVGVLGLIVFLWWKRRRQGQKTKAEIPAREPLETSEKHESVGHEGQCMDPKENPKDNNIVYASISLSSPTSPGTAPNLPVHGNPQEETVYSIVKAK
Briefly: flow cytometry, 293 cells expressing target. The protocol:
as §1
As for B1, the binding result is “no binding”.
The same measure, in the same setting: in the case of B7 it was “no binding”.
B2: the binding result is listed as “no binding”.
Same read-out and setting: the value for B8 was “no binding”.
For the molecule B3, the binding result was “no binding”.
As for B9, the binding result is given as “no binding”.
Same read-out and setting: in the case of B4 it was “no binding”; in that of B5, “no binding”.
The same measure, in the same setting: the value for B6 was “no binding”.
